Measurements reported in the RNAGym collection of RNA variant scans (doi:10.7554/elife.90254).

B1: LINE1-mini (parent)
chain: GGCAGAGCUCAACACAGCGUGGCAAAGUGGCUGUGGCUAGACUGCC

Variants of: B1
Assay: self-cleavage, relative activity (ratio to wild type); higher = more cleavage; in vitro, sequencing; the parent is a self-cleaving ribozyme

Variant | self-cleavage
C8G C13G | 0.04
C10A G36C | 0.02
U28C G33C | 0.06
G17C C18A | 0.1
U20C C31A | 0.27
A26U A39G | 0.22
G17U C37A | 0.1
G7U G21A | 0.14
G1U C10A | 0.03
C18A G22U | 1.74
G33U U34A | 0.08
G5A G17C | 0.39
G7A A11G | 0.02
G36U U43G | 0.1
G1C C3A | 0.19
G30U U43G | 0.2
U34G C42U | 0.1
A25G G36A | 0.15
G7U U28A | 0.03
G22A A41G | 0.31
A11U A39U | 0.05
G2A C15A | 0.31
G7U C18G | 0.14
U34C C45U | 0.14

Variant | self-cleavage
G5C U20G | 0.06
G5C U20C | 0.18
C13G U20C | 0.1
C8G C31A | 0.06
U9A G19U | 0.08
U20C G33U | 0.14
C23A U38G | 0.02
U9C C23G | 0.03
G7U C42U | 0.12
A24C U43A | 0.02
A24C U43C | 0.1
G27A A39C | 0.11
G1A A39U | 1.46
A16G C37G | 0.02
A4G C15G | 0.14
G36A C46U | 0.26
G36A C46A | 0.14
U32C A39G | 0.07
U32G A41U | 0.07
A25G C31U | 0.13
U20G G22A | 0.55
U32G G40C | 0.07
G1C C8G | 0.02
C15G A25C | 0.02

Variant | self-cleavage
U9G A24G | 0.14
A16C G22U | 0.1
A24G G40C | 0.18
A24G G40U | 0.16
G22U G36A | 0.15
U32A C42G | 0.06
G30U | 1.62
C8U U32C | 0.12
U20C G35U | 0.1
A6U C8G | 0.15
U9C G29U | 0.03
C23U C31A | 0.24
G2A U28A | 0.32
C23A A25G | 0.49
G29A C42A | 0.16
G33C G36C | 0.04
A4G A16C | 0.12
A14G A26U | 0.59
C3G G36C | 0.66
G2A G5C | 0.06
G35U C37U | 0.06
G36U | 0.08
G36C | 0.1
G1A G36A | 0.18

Variant | self-cleavage
G1C A11C | 0.01
C13A G33U | 0.05
A24C G40A | 0.07
G17U A26U | 0.04
G29C C31G | 0.34
U20A G35A | 0.1
G2U C3A | 0.48
C10G G35U | 0.04
A6U C18U | 0.93
G17C G21C | 0.61
G2C A11U | 0.03
C23G A25C | 0.69
A26C G44C | 0.35
A12C G30A | 0.03
G7A A16C | 0.13
G22U C31G | 0.22
C8G U34A | 0.05
G5C G19U | 0.14
G19A G44C | 0.48
C13U G44U | 0.1
U28C C42A | 0.16
C3A G29U | 0.71
C13A A26U | 0.11
C42G G44A | 0.12

Variant | self-cleavage
G22U C37G | 0.03
G2A G29U | 0.9
A39G | 0.1
G21U G30U | 1
G22A G27U | 0.75
C8A G27A | 0.17
U9C C37G | 0.01
C8A U34C | 0.26
G21U C23U | 1.38
A6U U32C | 0.1
G27U G40A | 0.13
C23A A24C | 0.85
G17U G27A | 0.38
C18A U34C | 0.06
A12U G44C | 0.17
C18U U38G | 0.01
A16U G35C | 0.07
A4G C46G | 0.24
G30A G40C | 0.16
A14U A25C | 0.3
A14U A25U | 0.32
G22A C42G | 0.03
U9A U32C | 0.13
G35A C42U | 0.09

Variant | self-cleavage
G35A C42A | 0.06
C3G C15U | 0.25
C13A G35C | 0.07
C31G G33A | 0.05
U20G G40A | 0.06
A26U U38C | 0.48
G7A U9A | 0.3
G17C U38G | 0.03
G21U G44U | 0.5
C15G G44U | 0.03
G21U G40C | 0.11
C23U G35C | 0.1
U9G G40A | 0.08
C8A G35U | 0.44
A14C U43C | 0.04
G17C U20C | 0.66
C3A G19A | 0.61
A14U A24U | 0.42
A4G U43C | 1.34
A4C A6U | 0.11
G22A C23G | 0.47
A11U U34G | 0.02
U20G A39C | 0.13
G21U C31G | 0.08

Variant | self-cleavage
C18U C42U | 0.17
C3G A14G | 1.31
A12C U32A | 0.03
A14U G35C | 0.11
G21U G33U | 0.17
A14C G27A | 0.09
G19U U32G | 0.1
G19U U32A | 0.09
G17C A26G | 0.07
G22U A26G | 1.68
C3A A11C | 0.04
A25G G27C | 0.16
G17C U32G | 0.07
G27C G29U | 0.51
C10U U34C | 0.08
A4U G7C | 0.18
A24U A26G | 0.84
A24G A26G | 0.5
A12U U20G | 0.09
A14C G40A | 0.09
C23U C42U | 0.91
G7U G17A | 0.08
G5C C8U | 0.11
C8U C23G | 0.29

Variant | self-cleavage
U38G A41C | 0.02
U20G G44U | 0.23
G1U A6C | 0.51
C8A C15U | 0.23
C3U U9G | 0.15
U20G U32A | 0.07
C15U U38G | 0.04
C10A A41G | 0.03
A4G | 0.5
A26U C42G | 0.1
U28A G35A | 0.15
U28A G40A | 0.1
G5U C15G | 0.09
G33C C42U | 0.06
C10A G33A | 0.04
G22A C46U | 0.84
U28G G40C | 0.07
C13U G35C | 0.22
C15G U32G | 0.04
U38C C45A | 0.35
A14C C18A | 0.05
U38A C46A | 0.35
C45U C46G | 0.39
G5C G21C | 0.04

Variant | self-cleavage
A4U G19A | 0.68
G30C A41C | 0.05
C15G C46G | 0.03
G1C U38G | 0.01
A4U U9A | 0.29
A4U U9C | 0.07
G2A U34G | 0.13
G5C G17C | 0.03
G1A A4U | 0.27
A12C A16C | 0.03
C23G G29C | 0.26
G35A A41G | 0.05
G35A A41C | 0.04
A11U C46G | 0.06
G33A C37A | 0.12
C31A C46G | 0.11
A24G G44C | 0.66
C3G G33C | 0.12
U20C C37G | 0.23
A4U G44C | 0.12
A16C A39G | 0.04
G17C G40U | 0.07
A11U C45A | 0.05
G22A A25U | 1.38

Variant | self-cleavage
G30A C31A | 0.4
C3U G30C | 0.44
G7C C37U | 0.13
G17C U34C | 0.09
C3A G17C | 0.31
G19A C42U | 0.43
G19A C42A | 0.34
A24G C31G | 0.05
A6C G17C | 1.47
A16U U38G | 0.02
A14U A26C | 0.6
C8A U32A | 0.16
A12U G29C | 0.05
C10U G33U | 0.04
A14C G29U | 0.13
G21U A39G | 0.08
U20C C42G | 0.04
G29U C46A | 0.82
G1U G30A | 0.43
C15A G33C | 0.06
C18U A24U | 0.97
G1C C31U | 0.04
G1C C31G | 0.01
A14U G27A | 0.37

Variant | self-cleavage
G22C A25C | 0.31
A25G U43A | 0.13
A11U G17U | 0.03
G2U U38A | 0.05
U20C U28C | 0.54
A4C A41G | 0.07
G7C G22A | 0.11
A25U C46G | 0.66
G1U U43G | 0.07
G17A U43A | 0.08
G19A G30C | 1.5
G19A G30A | 1.99
A12C G33A | 0.05
A12G C15G | 0.03
C23A C45G | 0.42
C23A G27C | 0.81
C18U U20G | 0.41
G19C C37G | 0.02
A6C C15U | 0.66
C15U G27A | 1.41
A14U G21A | 0.62
U43A G44U | 0.18
C3U C18A | 0.23
G2A C23A | 1.04

Variant | self-cleavage
U28C G36U | 0.11
C23G C42U | 0.47
C31U G40C | 0.03
A11C C18G | 0.05
G5C C42U | 0.05
C15A A25G | 0.12
G21A U34C | 0.14
A12U A24U | 0.31
G19A | 1.5
G22C G35A | 0.14
C3U G21U | 0.41
C23G U34C | 0.32
G19A C37G | 0.03
C3A U20A | 0.38
C31A C42G | 0.05
G17A G22A | 0.32
G33A C46U | 0.12
G19U U34G | 0.16
A6C C37A | 0.34
G1C U9G | 0.02
G17C C23A | 1.07
G19A G22C | 0.71
U9C C18A | 0.03
C8A C46G | 0.33

Variant | self-cleavage
C8A C46A | 0.35
U9C G35A | 0.06
C23U A39G | 0.1
A14G C45G | 0.2
G7U A24U | 0.07
A24U G33C | 0.06
A6U C37A | 0.08
A12G U28G | 0.01
A12G U28A | 0.04
A4C A12G | 0.06
U38A C42G | 0.07
C8A G44A | 0.45
G1C G27C | 0.14
U20A G36C | 0.07
C3A C10G | 0.05
G1U U28G | 0.2
G2A C45A | 1.08
C13U U38C | 0.1
A11U U32A | 0.03
C3A G35A | 0.35
A14U C18U | 0.08
U32A G40C | 0.08
G22U A24U | 1.4
G7C A11C | 0.04

Variant | self-cleavage
A25G A41U | 0.19
A26G C45G | 0.31
G19U A39C | 0.06
A24C C46G | 0.27
G22A G29A | 0.27
A4U C46G | 0.12
C18A A39G | 0.05
U9C C15A | 0.03
C13G G33A | 0.11
C15A C37A | 0.08
G19U C37A | 0.05
A6G C13G | 0.13
C13G C31G | 0.05
G29A C46U | 0.82
A14U C31G | 0.04
A6G G22C | 0.07
G5A A39G | 0.08
G5A A39U | 0.1
A14C U34A | 0.07
C10U C23G | 0.26
G17U C42A | 0.05
C23A U43C | 0.08
